The record followed here is PMC7531515.

Series [1] has as its target roledumab (human). Kind of series: SEC + native MS.
The nature of series [2]: SEC.
Series [3] concerns the target roledumab (human). The experiment in a line: native MS.
Series [4] concerns the target F(ab’)2 fragment of roledumab (IdeS digestion) (human). Kind of series: SEC + native MS.
For series [5] the target is unchanged. The experiment in a line: native MS.
In series [6] the target is Fab fragment of roledumab (IgdE digestion) (human). Kind of series: SEC + native MS.
For series [7] the target is unchanged. The experiment in a line: native MS.

B1: roledumab (antibody, V domains shown)
VH: QVQLVESGGGVVQPGRSLRLSCTASGFTFKNYAMHWVRQAPAKGLEWVATISYDGRNIQYADSVKGRFTFSRDNSQDTLYLQLNSLRPEDTAVYYCARPVRSRWLQLGLEDAFHIWGQGTMVTVSS
VL: AIRMTQSPSSFSASTGDRVTITCRASQDIRNYVAWYQQKSGKAPKFLIYAASTLQSGVPSRFSGSGSGTDFTLTINSLQSEDFATYYCQQYYNSPPTFGQGTRVEIT
B1: in series [1], the relative abundance of dimer peak 1 (UV) amounted to 46%, the relative abundance of dimer peak 2 (UV) turned out to be 32%, the relative abundance of dimer peak 3 (UV) came out at 13% and the stoichiometry N stood at 2. Moreover, in series [2], the “percent HMW species in the isolated HMW fraction” value is on record as 85% of HMW species (peak 2). In series [3], this molecule registered a relative abundance of dimer peak 2 (UV) of 20%, a relative abundance of dimer peak 3 (UV) of 13%, a relative abundance of dimer peak 4 (UV) of 65% and a stoichiometry N of 2.

B2: F(ab’)2 fragment of roledumab (IdeS digestion) (domain or fragment)
VH: B1 VH
VL: B1 VL
As to B2, in series [4], the relative abundance of F(ab’)2 dimer peak 1 (UV) came to 32%, the relative abundance of F(ab’)2 dimer peak 2 (UV) worked out at 16%, the relative abundance of F(ab’)2 dimer peak 3 (UV) was 8% and the stoichiometry N was determined as 2. Also, in series [5], the relative abundance of F(ab’)2 dimer (UV) stood at 54% and the stoichiometry N came to 2.

B3: Fab fragment of roledumab (IgdE digestion) (Fab, V domains shown)
VH: B1 VH
VL: B1 VL
B3: the stoichiometry N in series [6] and in series [7] was 2 throughout. For the same molecule, the relative abundance of Fab dimers (UV) in series [7] was found to be 10%.
